Assay results as given in a protein production outcome set (Wang et al. 2014).

Test: label from the status in PepcDB records

Sequence | protein production
MALILRPPHGYSVRNRYWPGSGASNLPYLFEDFALDGDRRELRRGNSLIAVEPQVFDLLQYLIRNRERVVSKDDLVDAVWQGRIVSDATLASRVNAARSALQDNGEQQRLVRTFPRRGFRFVGTVHEEAGAEATAPVEPAKPGLGIPARPSIAVLPFVNLSGDPDQDYFADGMVEDIITGLSRIRWLFVIARNSSFTYKGRAVDMKQVGQELGVRYVLEGSVRKVGSRVRITGQLIDTEDGGHLWAERYDRELTDVFALQDEITISVVAAIEPNLRRAEIERVKRQRPDSLDAYDLFLRALPDVYTFMPQGAARGLPLLDQALAIEPSYALVHGFAAWAHQTLFIRGGMQAEHSGKASRHAHAAIEHGSGDAMALALAGFTIGLVEHDRKLADEAFSQALSLSASCAFVYAFGCVPVAYGGDATRAIDWGEQALRLNPLDAMNCVPQGMIGFGNFLAGRHEQAIAAGRRAVEMNPGFSILHGWLAAPLARLGRIEEAKAAGSRLMALDPHFTIGRWSAAVGLAPAIIDDVTEAMRLAGLPA | failed
MALKLGLTEAVSLGITHISIYCDHFQIFELVMWRSVPDKDSIAMIMYDVQRIRQQLTSSTPLLVTGNQTNKLAYELALETLVSEISISIEEKALTCDKN | failed
MALLCYNRGCGQRFDPETNSDDACTYHPGVPVFHDALKGWSCCKRRTTDFSDFLSIVGCTKGRHNSEKPPEPVKPEVKTTEKKELCELKPKFQEHIIQAPKPVEAIKRPSPDEPMTNLELKISASLKQALDKLKLSSGNEENKKEEDNDEIKIGTSCKNGGCSKTYQGLESLEEVCVYHSGVPIFHEGMKYWSCCRRKTSDFNTFLAQEGCTKGKHMWTKKDAGKKVVPCRHDLHQTGGEVTISVYAKNSLPELSRVEANSTLLNVIIVFEGEKEFDQNVKLWGVIDVKRSYVTMTATKIEITMRKAEPMQWASLELPAAKKQEKQKDDTTD | not failed
MALLIITTILWAFSFSLIGEYLAGSVDSYFSVLMRVGLAALVFLPFLRTRGQSPRTIVLYMLVGAMQLGIMYLLAFRAYLYLTVSEFLLFTVFTPLYITLIYDLLSGRKLRWGYLLSAALAVLGAAIIRYDKVSDHFWTGLLLVQLSNLCFAIGMVGYKRLMEVRPMPQHNAFAWFYVGAFIVAVAAWFMLGNAQKLPTTTLQWSVLVWLGVVASGLGYFMWNYGATQVDAGTLGIMNNVHVPAGLLVNLAIWQEQPHWPSFISGALVILASLWVHRRWVAPHSGQTADDRRRGSAQSE | failed
MALMQELYSTPASRLDSFVAQWLQPHREWKEEVLDAVRTVEEFLRQEHFQGKRGLDQDVRVLKVVKVGSFGNGTVLRSTREVELVAFLSCFHSFQEAAKHHKDVLRLIWKTMWQSQDLLDLGLEDLRMEQRVPDALVFTIQTRGTAEPITVTIVPAYRALGPSLPNSQPPPEVYVSLIKACGGPGNFCPSFSELQRNFVKHRPTKLKSLLRLVKHWYQQYVKARSPRANLPPLYALELLTIYAWEMGTEEDENFMLDEGFTTVMDLLLEYEVICIYWTKYYTLHNAIIEDCVRKQLKKERPIILDPADPTLNVAEGYRWDIVAQRASQCLKQDCCYDNRENPISSWNVKRARDIHLTVEQRGYPDFNLIVNPYEPIRKVKEKIRRTRGYSGLQRLSFQVPGSERQLLSSRCSLAKYGIFSHTHIYLLETIPSEIQVFVKNPDGGSYAYAINPNSFILGLKQQIEDQQGLPKKQQQLEFQGQVLQDWLGLGIYGIQDSDTLILSKKKGEALFPAS | failed
MALPIIVKWGGQEYSVTTLSEDDTVLDLKQFLKTLTGVLPERQKLLGLKVKGKPAENDVKLGALKLKPNTKIMMMGTREESLEDVLGPPPDN | failed
MALQLATLCFVSFSALFFVVDPFSAVPFFLALTRNDDPRRRREIALRASVTAFAVLAAFALTGEWIFRLLGIGLPAFKVAGGVVLLLLALDMVRTQPSRTRITQGEVDASADKEDVAIVPLAMPLLAGPGSIATAIVLMVRARGEDWWHPLPVLLAIALTCLASYLILAGAARTEKVLGRTGLAILERVAGLLLVAIAVQFMMDGLAEGLPRAFPLR | failed
MALREQWAETAMGVVVLALTAGFLTYSLTVGGVHMKRGDYEISAKFGEAGSLAPGAAVTVAGVKVGTVSQITLEPKTYLAVAKLSIDPTVKLPADSTAKITSDGLLGGAHVAIAPGASLDDLKPGGEIENTQGAVDLFGLIGSVIRPQGGAATTSTPAEANPATQPAESYLEHHHHHH | not failed
MALRQKLGWSEGDLMRSDAKPCSRLMKQTAAIFTVGGALGFWVLCRLHYGPRITVPRSLRWAGCGALSVSTSTAMLVRLFSPECEPQNIAAYDNIKTPQASLP | failed
MALSKRELDELKPWIEKTVKRVLGFSEPTVVTAALNCVGKGMDKKKAADHLKPFLDDSTLRFVDKLFEAVEEGRSSRHS | not failed
MALVDDGSQPLVSVIIASYNHEKYIEASIASVAAQTYRNVELLVVDDGSSDGSVELLRGLQAKYGFDLRVQQNQGLSRTLNEAITRARGNLIVPFGSDDIMLPQRLEKQVAHMWDKPEVGICAGNIEIIDSNGRVMPGKEQRKRDLPFRRLDFDDLFLDRKPGPMAPTLMFRREALEKVGGFDPDIRLEDVYIELAVTKAGYVIDILGEVLAQYRKHPTNTYKNARFMVDNVFKTYSQFSDHPDYEQVIMRFRNSMFLKCSNRDKVLARELLSGLPLKYWNEKTFRGIARLFFS | failed
MALVPVYCLCRQPYNVNHFMIECGLCQDWFHGSCVGIEEENAVDIDIYHCPDCEAVFGPSIMKNWH | not failed
MALVRKDVVKLAAPIFVEQLFVTLMGMINTMMAGHIGKEAVSAIGMIDSINNIFIAFFSALAVGGTVVVAQYIGQNNIKKANESTKQALYSTIIIAFVITIIMAILKGPLLGFLFGSAEKEVILDANSYFGITLLTYPLITIDLVSNGILRGAGDTKTPMKISILMNVLNVAFTALFIWGIKINGTVVVKSLGITGAALGIATARTIGGIIILIVMVRGSRIVQLKKLTEFKFDMTLLKPIFGIGVPASVESLLFNGGKLIMQIFIVGMGTVAMASNTIVNSISNFLNIPGNSLVIAATALVGQHMGRDDDKGAEKCLSYITKLSTVLLAIVGILSILFSRHLPSPVYWK | failed
MALVSADSRIAELLTELHQLIKQTQEERSRSEHNLVNIQKTHERMQTENKISPYYRTKLRGLYTTAKADAEAECNILRKALDKIAEIKSLLEERRIAAKIAGLYNDSEPPRKTMRRGVLMTLLQQSAMTLPLWIGKPGDKPPPLCGAIPASGDYVARPGDKVAARVKAVDGDEQWILAEVVSYSHATNKYEVDDIDEEGKERHTLSRRRVIPLPQWKANPETDPEALFQKEQLVLALYPQTTCFYRALIHAPPQRPQDDYSVLFEDTSYADGYSPPLNVAQRYVVACKEPKKK | failed
MAMRELSQLNRDSDGDEEVWVKHYSSNHQILLVGEGDFSFSHSLATLFGSASNICASSLDSYDVVVRKYKKARSNLKTLKRLGALLLHGVDATTLHFHPDLRYRRFDRVIFNFPHAGFHGRESDSSLIRKHRELVFGFFNGASRLLRANGEVHVSHKNKAPFSEWNLEELASRCFLVLIQRVAFEKNNYPGYENKRGDGRRCDQPFLLGECSTFKFRFSRVAKELYAEKVRSREVKERESMYPEAILNKQPVSFDHRYRLQTEFEAIAGTITLGKSKILWLSQEKGHLHWIFVTTKNVDVYSSKIPESPERHRLLCQDFPVQASQEPLSEYSNRWSGVSREIYNWEVRRMSTSTSFPHPYTGESQERSLSRQSNLITHPPQHW | failed
MAMWVFGYGSLIWKTGFPFDESLPGFIKGYRRVFHQGSTDHRGTPDFPGRTVTLEAAHEEHLEVREKQYDQKEYLDFFTDSNASEPAVAGVMVYIASPDKKSNNNYLGPAPLEDIAKQIVKAKGPSGPNRDYLFNLEEALAQLGFKDKHVTDLANQVRHILSESEELDIDATAATANNV | failed
MANDKRTSPPTPRQPAKGGAAGKRQGHAAEGTRKPRARGEERKEKPADGRSATALTANERREIDDKQPPRAAVLHEVIRVQGEHELQRTLAALWWSAVAAGLTIGLSLMGMGLFRAALPEQEWAIIVSSFGYPMGFLAVILARQQLFTENTLTAVLPVMTEPTLEKAWQLLRLWSVVLFGNIVGTLLFAWAVLHLPIFNEAADAAFLEIGREVMHNDLAQMFAKGIVSGWMIATMVWLIPAAEGAKIWIIAMVTYLMALGSFTHIVVGSAEVGYLAFAGEIGWAEFLLKFALPTLGGNIVGGSLIFALISHAQIRSEG | failed
MANDPRHLPSRKLLVTCALPYANGSIHLGHMLEHIQADIWVRYQRLRGNTVNFICADDAHGTPIMLKAQQMGITPEEMIAAVSEEHQKDFAGFDISFDNYHSTHSEENRELASHIYLELKKNGFISSRTISQLFDPEKEMFLPDRFVKGTCPKCKSEDQYGDNCDNCGETYSPTELINPKSAVSGATPVMKDSEHFFFDLPQFESMLKEWTRSGSLQSETANKMQEWFESGLQQWDISRDAPYFGFEIPGEKDKFFYVWLDAPIGYMGSFKNLCNKRDDLDFDEYWNKDSKTELYHFIGKDIVYFHSLFWPAMLEGSGFRKPNNVFVHGYVTVNGAKMSKSKGTFVKASTYLDHLDPECLRYYYAAKLNSRIDDLDLNLEDFTQRVNADVVNKIVNLASRNAGFIAKRFEGKLSDNFAEPELYNEFVAAADRIAELFEAREFGRAIREITALADKANQYVDEKAPWVVAKEEGKDQELQEICSVGINLFRVLMTYLKPVMPALAARTEAFLNQELTWEGIAQPLTGHEITKFKALFNRIDPKNIEAMIEASKEDAAAEMAAKEKAEAAKTETELSKDPIADEIEFDTFAQVDLRIARIISCEEVPKANKLLKFQLDIGGETRQVFSGIKSAYKPEELEGKLTVMVANLKPRKMKFGMSEGMILAAGPGGSDLWILEPHEGAQPGMRVM | failed
MANIEIRQETPTAFYIKVHDTDNVAIIVNDNGLKAGTRFPDGLELIEHIPQGHKVALLDIPANGEIIRYGEVIGYAVRAIPRGSWIDESMVVLPEA | not failed
MANIKIRQETPTAFYIKVHDTDNVAIIVNDNGLKAGTRFPDGLELIEHIPQGHKVALLDIPANGEIIRYGEVIGYAVRAIPRGSWIDESMVVLPEA | not failed
MANKEKLPWDLEEEILSRVPPTSLDRFKTVCKRWNALFNDKTFINNHKMTFQFVLSTRSKIYSVSVNPKVEVRELTLNNPGLKAQRHKNLFATSGLLLCDVGNGAVVWNPWLKQSRCIKLEVNEPSLDFLGIGYDNNKRVEEIVYKTLSVYMKDLGSQYTWKIHDFASDTWIDQEIEKTKYSRRITEGSVTIRLTNLSVVSLNGKFFKFCDLPSGKNRRRDALALRVFREDRFSLLRQCHVTKKIKIWVTKNKIDNRYGGDVKWMSFMEVSIPTMPDLEHPKFNSQPSYFIDDKRLVICSCDETGRAWIYVVGGNKLVSKTQLDSVVDPWPLHCTYFPSLVLVPGGQREEAELQEAKNLHVTTELYVPGKTKSSIKLHYG | failed
MANKENTSDEGLRVSYDVKTYHEQKYIDYTLRLREILKTLPSFAKDYFRAIEPTTSANTRISYAYDIRVFFRFLMENNPVYKNYTIDQFTLADIENLEPVDIEEYQEYLKVYKNDEKQVTNTEKGLARKMSALRSFYGYYFKRQAISKNPTLLVDMPKLHEKAIIRLDADEVVRLLDYVDHGGDHLTGQKKAYFEKTRNRDLAILTLLLGTGIRVSECVGLDINDVDFENNGIKVMRKGGNEMIVYFGEEVENALKTYMYTTRRTTLPLPGHENALFLSTQRKRMGVQAIENMVKKYAREVTPNKKITPHKLRSTYGTSLYKETGDIYLVADVLGHKDVNTTKKHYAAIDEDRRRQAANIVKLREV | failed
MANNTTGFTRIIKAAGYSWKGLRAAWINEAAFRQEGVAVLLAVVIACWLDVDAITRVLLISSVMLVMIVEILNSAIEAVVDRIGSEYHELSGRAKDMGSAAVLIAIIVAVITWCILLWSHFG | failed
MANRLRTGIDVLDRKLDGGIPAGSIVVLSAQPASQAELFLYELTATRGTLWLSLDRTAESVIASIEQTPANTGDPTVRHISGEAPLDNAGKLVSALPETSNLIVDPLDVLEAQEPHSRFRAFMNDLQNHIVNTGSLAIVHCLDGRDVPPLRDTTEHFADVVFQLNTTTNGDEVENRLAIPKFRGGRAPTDIIKLNLVEEVSIDTSRDIALEHHHHHH | failed
